The text below walks through data of paper PMC3491808 (Journal of biomolecular NMR, 2011).

Non-standard residues stand in square brackets, D forms with d. No end group written: not given here. pT = C[C@@H](OP(=O)(O)O)[C@H](N)C(=O)O

The assay has as its target Pin1-PPIase (isolated catalytic PPIase domain of Pin1, residues 46-163) (human, UniProt Q13526 46-163). In words: NMR titration.

Pin1-PPIase (isolated catalytic PPIase domain of Pin1, residues 46-163), sequence (Q13526 46-163): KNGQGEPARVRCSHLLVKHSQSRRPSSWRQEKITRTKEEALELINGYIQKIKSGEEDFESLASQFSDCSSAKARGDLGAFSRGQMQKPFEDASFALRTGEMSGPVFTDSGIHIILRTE

What is called Kd is the constant that tells how readily two partners part at equilibrium. Higher therefore signals weaker binding. GVVEVDAAV[pT]PEERHLSKMQQNGY (peptide, UniProt P05067-4 659-682, looked up) [pAPP659-682 (24-residue phosphopeptide, residues 659-682 of APP phosphorylated at T668)] had a Kd of 1300 µM.
